Biological target: T1, H3K9me2 peptide
T1 chain: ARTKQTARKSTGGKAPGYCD

B1: SUV39H1 (protein)
chain: EVEYLCDYKKIREQEYYLVKWRGYPDSESTWEPRQNLKCVRILKQFHKDLERELLRRHHRSKTPRHLDPSLANYLVQKAKQRRALRRWEQELNAKRSHLGRITVENEVDLDGPPRAFVYINEYRVGEGITLNQVAVGCECQDCLWAPTGGCCPGASLHKFAYNDQGQVRLRAGLPIYECNSRCRCGYDCPNRVVQKGIRYDLCIFRTDDGRGWGVRTLEKIRKNSFVMEYVGEIITSEEAERRGQIYDRQGATYLFDLDYVEDVYTVDAAYYGNISHFVNHSCDPNLQVYNVFIDNLDERLPRIAFFATRTIRAGEELTFDYNMQVDPVDMESTRMDSNFGLAGLPGSPKKRVRIECKCGTESCRKYLF
histone methyltransferase activity (H3K9me3 product detected by ELISA with 309M3-A): activity of the HMT SUV39H1 and its inhibition by an HMT inhibitor, chaetocin (Greiner et al., 2005), were clearly observed with 309M3-A
